According to IntAct's records for PubMed 11056176:

B1: snRNA-activating protein complex subunit 4 (Homo sapiens), Q5SXM2 (parent)
chain: MDVDAEREKITQEIKELERILDPGSSGSHVEISESSLESDSEADSLPSEDLDPADPPISEEERWGEASNDEDDPKDKTLPEDPETCLQLNMVYQEVIQEKLAEANLLLAQNREQQEELMRDLAGSKGTKVKDGKSLPPSTYMGHFMKPYFKDKVTGVGPPANEDTREKAAQGIKAFEELLVTKWKNWEKALLRKSVVSDRLQRLLQPKLLKLEYLHQKQSKVSSELERQALEKQGREAEKEIQDINQLPEEALLGNRLDSHDWEKISNINFEGSRSAEEIRKFWQNSEHPSINKQEWSREEEERLQAIAAAHGHLEWQKIAEELGTSRSAFQCLQKFQQHNKALKRKEWTEEEDRMLTQLVQEMRVGSHIPYRRIVYYMEGRDSMQLIYRWTKSLDPGLKKGYWAPEEDAKLLQAVAKYGEQDWFKIREEVPGRSDAQCRDRYLRRLHFSLKKGRWNLKEEEQLIELIEKYGVGHWAKIASELPHRSGSQCLSKWKIMMGKKQGLRRRRRRARHSVRWSSTSSSGSSSGSSGGSSSSSSSSSEEDEPEQAQAGEGDRALLSPQYMVPDMDLWVPARQSTSQPWRGGAGAWLGGPAASLSPPKGSSASQGGSKEASTTAAAPGEETSPVQVPARAHGPVPRSAQASHSADTRPAGAEKQALEGGRRLLTVPVETVLRVLRANTAARSCTQKEQLRQPPLPTSSPGVSSGDSVARSHVQWLRHRATQSGQRRWRHALHRRLLNRRLLLAVTPWVGDVVVPCTQASQRPAVVQTQADGLREQLQQARLASTPVFTLFTQLFHIDTAGCLEVVRERKALPPRLPQAGARDPPVHLLQASSSAQSTPGHLFPNVPAQEASKSASHKGSRRLASSRVERTLPQASLLASTGPRPKPKTVSELLQEKRLQEARAREATRGPVVLPSQLLVSSSVILQPPLPHTPHGRPAPGPTVLNVPLSGPGAPAAAKPGTSGSWQEAGTSAKDKRLSTMQALPLAPVFSEAEGTAPAASQAPALGPGQISVSCPESGLGQSQAPAASRKQGLPEAPPFLPAAPSPTPLPVQPLSLTHIGGPHVATSVPLPVTWVLTAQGLLPVPVPAVVSLPRPAGTPGPAGLLATLLPPLTETRAAQGPRAPALSSSWQPPANMNREPEPSCRTDTPAPPTHALSQSPAEADGSVAFVPGEAQVAREIPEPRTSSHADPPEAEPPWSGRLPAFGGVIPATEPRGTPGSPSGTQEPRGPLGLEKLPLRQPGPEKGALDLEKPPLPQPGPEKGALDLGLLSQEGEAATQQWLGGQRGVRVPLLGSRLPYQPPALCSLRALSGLLLHKKALEHKATSLVVGGEAERPAGALQASLGLVRGQLQDNPAYLLLRARFLAAFTLPALLATLAPQGVRTTLSVPSRVGSESEDEDLLSELELADRDGQPGCTTATCPIQGAPDSGKCSASSCLDTSNDPDDLDVLRTRHARHTRKRRRLV
partner: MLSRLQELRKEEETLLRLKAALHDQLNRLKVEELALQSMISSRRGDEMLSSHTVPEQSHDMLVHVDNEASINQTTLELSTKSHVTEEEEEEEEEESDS
B2: snRNA-activating protein complex subunit 4 (Homo sapiens), Q5SXM2 (parent)
chain: B1 chain
partner: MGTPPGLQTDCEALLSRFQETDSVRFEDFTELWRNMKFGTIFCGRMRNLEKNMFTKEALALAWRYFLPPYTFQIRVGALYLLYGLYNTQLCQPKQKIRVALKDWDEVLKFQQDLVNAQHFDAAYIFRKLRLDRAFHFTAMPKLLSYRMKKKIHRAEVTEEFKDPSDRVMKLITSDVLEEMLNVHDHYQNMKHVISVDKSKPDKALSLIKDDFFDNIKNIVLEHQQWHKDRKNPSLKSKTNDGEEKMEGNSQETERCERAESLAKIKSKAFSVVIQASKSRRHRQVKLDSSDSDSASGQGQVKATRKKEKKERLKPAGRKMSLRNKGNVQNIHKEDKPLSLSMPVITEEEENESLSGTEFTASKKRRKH
B3: snRNA-activating protein complex subunit 5 (Homo sapiens), O75971 (parent)
chain: B1 partner
partner: B1 chain

Variants of: B1
Conditions: with snpc5_human SNAPC5, O75971

Row | Variant | effect of a mutation on the interaction
1 | Q115L | disrupting interaction strength
2 | L101A;L108A | disrupting interaction strength
3 | Q94L | disrupting interaction strength
4 | L87A;Q94A | disrupting interaction strength

The remaining lines, values ahead:

Row | effect of a mutation on the interaction | Variant
5 | disrupting interaction strength | Q94A
6 | decreasing interaction strength | L89A;V96A
7 | disrupting interaction strength | Q115A;L122A

Variants of: B2
Conditions: with snpc1_human SNAPC1, Q16533

Row | Variant | effect of a mutation on the interaction
8 | L1314A | disrupting interaction strength
9 | L1369A | decreasing interaction strength
10 | L1355A;L1362A | disrupting interaction strength
11 | L1364A | disrupting interaction strength

Next, values leading:

Row | effect of a mutation on the interaction | Variant
12 | decreasing interaction strength | L1311A
13 | with no effect | L1297A;Q1304A
14 | decreasing interaction strength | L1301A;L1308A

Variants of: B3
Conditions: with snpc4_human SNAPC4, Q5SXM2

Row | effect of a mutation on the interaction | Variant
15 | decreasing interaction strength | L18A
16 | disrupting interaction strength | L15A;L22A
17 | decreasing interaction strength | L8A
18 | disrupting interaction strength | L29A;L36A
